Literature values, collected in publication PMC8760628.

Biological target: IL-18 mature (Homo sapiens) (UniProt Q14116)
Sequence (Q14116 37-193): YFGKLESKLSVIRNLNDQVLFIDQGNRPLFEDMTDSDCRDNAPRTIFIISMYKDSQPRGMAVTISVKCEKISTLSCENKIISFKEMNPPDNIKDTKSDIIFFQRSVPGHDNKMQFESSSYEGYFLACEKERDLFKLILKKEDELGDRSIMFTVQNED

Sequence of IL-18BP (O95998 31-194): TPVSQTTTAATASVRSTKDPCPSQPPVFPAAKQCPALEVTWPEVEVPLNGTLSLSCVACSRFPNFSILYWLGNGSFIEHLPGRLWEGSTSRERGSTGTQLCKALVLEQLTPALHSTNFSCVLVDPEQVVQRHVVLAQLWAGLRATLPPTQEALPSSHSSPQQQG

For IL-18BP (from UniProt O95998), the Kd is given as 0.5 nM.
